Several values for one entry are separate records, joined by “and”; a condition that tells them apart may be missing. Identical values can stand only once. Entries after “also recorded” stand apart in the source; their conditions may differ. Ends that are not written are not given here.
What was measured:
[1] = target: T1, dipeptidyl-peptidase IV (DPP-IV) (Homo sapiens, UniProt P27487); assay: DPP-IV inhibition assay on SPOT-synthesized peptides (cleaved from cellulose membrane); assay type: biochemical; settings: for Percent inhibition of DPP-IV activity, SPOT-synthesized deca-peptides: peptides cleaved from cellulose membrane, concentration not known (semi-quantitative), averages of four determinations from two experiments
T1 construct: purchased Creative BioMart (Shirley, NY, USA); host or cells: HEK293 human cells
T1 sequence (P27487 whole entry): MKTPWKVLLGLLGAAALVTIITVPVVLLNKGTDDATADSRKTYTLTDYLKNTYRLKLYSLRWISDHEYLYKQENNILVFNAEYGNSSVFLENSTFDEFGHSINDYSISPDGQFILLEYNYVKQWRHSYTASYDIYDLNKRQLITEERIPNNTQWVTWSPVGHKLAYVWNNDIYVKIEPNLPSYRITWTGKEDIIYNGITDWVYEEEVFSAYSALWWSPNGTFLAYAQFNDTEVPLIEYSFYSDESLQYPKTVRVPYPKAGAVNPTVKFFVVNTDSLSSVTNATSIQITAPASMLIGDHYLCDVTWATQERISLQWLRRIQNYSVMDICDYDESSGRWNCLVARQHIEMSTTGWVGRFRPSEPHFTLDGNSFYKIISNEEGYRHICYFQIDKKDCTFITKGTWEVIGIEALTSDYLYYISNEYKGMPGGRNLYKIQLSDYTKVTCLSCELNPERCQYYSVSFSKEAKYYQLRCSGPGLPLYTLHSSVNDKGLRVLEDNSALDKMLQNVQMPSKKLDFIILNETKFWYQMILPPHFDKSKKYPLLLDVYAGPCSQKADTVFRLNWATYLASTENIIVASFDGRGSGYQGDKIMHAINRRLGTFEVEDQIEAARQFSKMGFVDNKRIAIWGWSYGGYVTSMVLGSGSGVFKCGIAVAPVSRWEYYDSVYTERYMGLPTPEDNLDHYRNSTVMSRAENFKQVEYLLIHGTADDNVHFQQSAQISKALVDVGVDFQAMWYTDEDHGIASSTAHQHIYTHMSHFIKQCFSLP
Method in brief: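 Human DPP-IV expressed in HEK293 cells, with Gly–Pro–p-NA substrate (0.29 mM stock), was tested against α-lactalbumin decapeptides ammonia-cleaved from SPOT cellulose membranes and eluted in 50% acetonitrile/Tris, pH 8.0. After a 10-min preincubation, reaction ran 30 min at 37 °C, was stopped at pH 4.0, and p-nitroaniline absorbance was read at 405 nm.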

[2] = target: T1, dipeptidyl-peptidase IV (DPP-IV); assay: Probing of membrane-bound peptide arrays: binding of DPP-IV to deca-peptides (immunoassay, chemiluminescence); settings: for Binding of DPP-IV to cellulose-bound deca-peptide (in words): peptide array on cellulose membrane, DPP-IV 10 μg/mL
Method: The interaction between the DPP-IV enzyme and deca-peptides spanning the entire α-lactalbumin sequence (Table S1) was first determined by immunoassay and visualized using an enhanced chemiluminescence substrate (Figure 1).
The membranes were first blocked with protein-free (Tris-buffered saline (TBS)) blocking buffer containing 0.05% Tween-20 for 4 h at room temperature and then incubated with DPP-IV (10 μg/mL in blocking buffer) overnight at 4 °C. The membranes were washed with TBS (50 mM Tris, 136 mM NaCl, 0.05% Tween-20, pH 8.0) four times for 15 min each, after which they were incubated with the polyclonal goat DPP-IV antibody (0.2 µg/mL) for 8 h at 4 °C. The membranes were once again washed with TBS four times for 15 min each prior to being incubated with anti-goat secondary antibody conjugated to horseradish peroxidase (0.1 µg/mL) overnight at 4 °C. Finally, the membranes were washed four more times for 15 min each; then a thin layer of chemiluminescence detection mixture, prepared according to the manufacturer’s instructions, was applied for 1 min and the luminescence generated from the spots on the membranes with bound DPP-IV was measured using a ChemiDoc™ MP system (Bio-Rad Laboratories (Canada) Ltd., Mississauga, ON, Canada).

DPP-IV = settings: Table S2; cited from earlier work
[3] = target: T1, dipeptidyl-peptidase IV (DPP-IV); assay: DPP-IV inhibition assay on traditionally-synthesized peptides; assay type: biochemical; settings: 250 µM of peptides (final assay concentration); averages of three determinations
Source text: Recombinant human dipeptidyl-peptidase IV (DPP-IV, EC 3.4.14.5, expressed in HEK293 human cells, >95% purity, activity >5500 pmoles Gly–Pro–7-amido-4-methylcoumarin/min/µg) was purchased from Creative BioMart (Shirley, NY, USA) while polyclonal goat DPP-IV antibody and polyclonal donkey anti-goat secondary antibody conjugated to horseradish peroxidase were obtained from R&D Systems (Minneapolis, MN, USA). Pierce™ ECL western blotting substrate and protein-free (TBS) blocking buffer were from Thermo Scientific (Rockford, IL, USA). Gly–Pro–p-nitroanilide (H-Gly–Pro–p-NA∙HCl) was purchased from Bachem Americas (Torrance, CA, USA). Synthesized peptides (≥95% purity) were prepared and purified by GL Biochem (Shanghai) Ltd. (Shanghai, China).
The peptides were dissolved in a mixture of acetonitrile and H2O and further diluted in 100 mM Tris-HCl pH 8.0 buffer to the desired concentrations. In a 96-well microplate, 25 µL of sample were pre-incubated with 25 µL of 100 mM Tris-HCl pH 8.0 buffer and 35 µL of Gly–Pro–p-NA (0.29 mM in 100 mM Tris-HCl buffer pH 8.0) at 37 °C for 10 min. The enzymatic reaction was started by addition of 15 µL of DPP-IV solution (25 mU/mL) and carried out at 37 °C for 30 min. Sodium acetate buffer (1 M, pH 4.0, 100 µL) was added to stop the reaction and the absorbance of the released p-nitroaniline was measure at 405 nm using a Tecan Infinite® 200 Pro microplate reader. The positive and negative controls were prepared by using Tris-HCl buffer (100 mM, pH 8.0) in place of the sample and in place of the sample and enzyme solution, respectively.

[4] = target: T1, dipeptidyl-peptidase IV (DPP-IV); assay: Determination of the mode of inhibition and the inhibition constant (Ki); assay type: biochemical
Method: The traditionally-synthesized peptides showing the highest inhibitory activity against DPP-IV were further studied for their mode of action on the enzyme as previously described with the following modifications: the substrate (25 µL) was combined with 100 mM Tris-HCl buffer pH 8.0 (35 µL) and the sample (25 µL) and pre-incubated for 10 min at 37 °C, after which the enzymatic reaction was started by addition of the DPP-IV enzyme (15 µL of a 25 mU/mL solution).
The mode of inhibition and Ki values of the inhibitory peptides were determined by fitting the initial velocity versus substrate concentration data to nonlinear regression models using the GraphPad Prism software (version 6, GraphPad Software, San Diego, CA, USA). The Ki values are expressed as final assay concentrations.

Sequence	Percent inhibition of DPP-IV activity, SPOT-synthesized deca-peptides [1] [%]	Binding of DPP-IV to cellulose-bound deca-peptide (in words) [2]	Reported Relationship to DPP-IV (DPP-IV)	also measured
HSQGTFTSDY [K8, reference compound]	15	found to bind to DPP-IV	Inhibitor	
IPAVFKIDA			inhibitor	
IVTQTMKGLD [K5, reference compound]	16	found to bind to DPP-IV	Weak inhibitor	
LKPTPEGDL			inhibitors	
LKPTPEGDLEIL			inhibitors	
LPEWVCTTFH [C1, LPEWVCTTFH]	26			inhibition at 250 µM [3]: 26%; Ki [4]: 300 ± 16 µM
WCKDDQNPHS [F5]	29	moderate or no binding; also recorded: no or only moderate interaction with DPP-IV		Category: inhibitory activity ([1]; class by decrease in DPP-IV activity): High inhibitory activity (High inhibitory activity refers to peptides able to cause more than 20% decrease in DPP-IV activity); % DPP-IV Inhibition Traditionally-Synthesized [3]: 51%; αKi ([4]; traditionally synthesized peptide, un-competitive inhibition, final assay concentration, average ± standard error, triplicate): 76 µM and 76 ± 5 µM; Mode of Inhibition ([4]; traditionally synthesized peptides, Lineweaver-Burk / nonlinear regression): Un-competitive; Category: binding ([2]; peptide array spot, relative luminescence intensity): moderate/no binding
YPSKPDNPGE [K11, YPSKPDNPGE, reference compound]	31			inhibition at 250 µM [3]: 25%; Ki [4]: 262 ± 17 µM

From publication PMC4264199, “Peptide Array on Cellulose Support—A Screening Tool to Identify Peptides with Dipeptidyl-Peptidase IV Inhibitory Activity within the Sequence of α-Lactalbumin” (International Journal of Molecular Sciences, 2014)
